From patent publication US20160362456
Where a chain is given by its changes, count along the chain named.

Columns and labels:
Assay in all cases: EMSA
Settings in all cases: derived from FIG. 2D
[1] = biological target: T1, XylR P363S P363S (Escherichia coli) (UniProt P0ACI3)
T1 sequence: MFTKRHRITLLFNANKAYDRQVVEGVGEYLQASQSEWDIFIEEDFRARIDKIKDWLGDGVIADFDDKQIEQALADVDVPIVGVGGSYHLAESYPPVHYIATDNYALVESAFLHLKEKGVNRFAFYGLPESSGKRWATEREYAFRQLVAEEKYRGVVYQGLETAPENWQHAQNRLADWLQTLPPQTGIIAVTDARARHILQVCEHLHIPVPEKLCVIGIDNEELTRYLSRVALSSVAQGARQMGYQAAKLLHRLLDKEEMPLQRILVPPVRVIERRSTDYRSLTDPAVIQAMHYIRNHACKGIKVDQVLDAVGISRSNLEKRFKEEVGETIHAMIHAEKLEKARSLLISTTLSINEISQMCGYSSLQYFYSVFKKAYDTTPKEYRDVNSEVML

[2] = biological target: T2, XylR wild-type (Escherichia coli) (UniProt P0ACI3)
T2 sequence: T1 sequence with S363P

[3] = biological target: T3, XylR R121C R121C (Escherichia coli) (UniProt P0ACI3)
T3 sequence: T1 sequence with R121C, S363P

Substance | Kd ([1]; value as printed) [nM] | Kd [2] [nM] | Kd [3] [nM] | Kd [1] [nM]
XylR binding site IF | 27 | 19.6 | 4 | –
XylR binding site IA | – | 38.5 | 2.7 | 12.4
